Source: PMC6160412, “Structural insights into modulation and selectivity of transsynaptic neurexin–LRRTM interaction” (Nature Communications, 2018)
Residue numbers refer to the chain shown, from its start. Names may count otherwise. Each block holds one binder with its values, some of them ahead of it.

Legend:
Conditions in all cases: both partners purified
[1] = biological target: T1, human LRRTM2 LRR domain, wild type (human, UniProt O43300 34-371); test: SPR; Biacore T200; wild-type or mutant LRRTM immobilised on a CM5 chip by amine coupling; Nrxn1β as analyte in two-fold dilutions from 40 µM (from 160 µM for +S4 and R206A); 25 °C; 20 mM Hepes-NaOH pH 7.5, 150 mM NaCl, 2 mM CaCl2, 0.005% Tween-20, 0.5 g/L BSA; equilibrium KD
T1 construct: signal peptide in the construct; human LRRTM2 LRR domain, residues 1-371 cloned (residues 34-371 are named for the crystallised protein); Secreted with its own signal peptide; the mature protein probably begins at residue 34, as in the crystallised protein; also called LRRTM2^WT; hLRRTM2; source: Expi293F, transiently expressed, purified from culture medium (Ni-NTA, SEC)
T1 sequence (looked up): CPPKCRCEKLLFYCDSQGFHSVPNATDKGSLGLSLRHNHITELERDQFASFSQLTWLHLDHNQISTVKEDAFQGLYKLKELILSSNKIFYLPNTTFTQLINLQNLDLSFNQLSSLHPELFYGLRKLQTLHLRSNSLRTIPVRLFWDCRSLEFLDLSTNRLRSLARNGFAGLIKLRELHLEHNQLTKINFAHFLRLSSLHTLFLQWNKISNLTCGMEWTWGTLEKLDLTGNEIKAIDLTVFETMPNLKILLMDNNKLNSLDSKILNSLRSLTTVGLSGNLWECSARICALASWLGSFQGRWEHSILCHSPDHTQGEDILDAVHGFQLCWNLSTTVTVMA

[2] = biological target: T2, human LRRTM2 LRR domain, H355A mutant (human, UniProt O43300 34-371, H355A); test: as above
T2 construct: signal peptide in the construct; human LRRTM2 LRR domain, residues 1-371 cloned, with H355A; Neuraminidase was added before crystallization to trim N-linked glycans; also called LRRTM2^H355A; hLRRTM2^H355A; source: Expi293F, transiently expressed, purified from culture medium (Ni-NTA, SEC); for crystallization coexpressed with Nrxn1β (–S4) LNS and separated by SEC
T2 sequence (looked up): T1 sequence (looked up) with H322A

[3] = biological target: T3, human LRRTM2 LRR domain, F357Y mutant (human, UniProt O43300 34-371, F357Y); test: as above
T3 construct: signal peptide in the construct; human LRRTM2 LRR domain, residues 1-371 cloned, with F357Y; also called LRRTM2^F357Y; source: Expi293F, transiently expressed, purified from culture medium (Ni-NTA, SEC)
T3 sequence (looked up): T1 sequence (looked up) with F324Y

[4] = biological target: T4, human LRRTM2 LRR domain, D352A mutant (human, UniProt O43300 34-371, D352A); test: as above
T4 construct: signal peptide in the construct; human LRRTM2 LRR domain, residues 1-371 cloned, with D352A; also called LRRTM2 D352A; source: Expi293F, transiently expressed, purified from culture medium (Ni-NTA, SEC)
T4 sequence (looked up): T1 sequence (looked up) with D319A

[5] = biological target: T1, human LRRTM2 LRR domain, wild type; test: ITC; MicroCal Auto-iTC, 25 °C; LRRTM2 (15 µM) in the cell, Nrxn1β (200 µM) injected; 20 mM Hepes-NaOH pH 7.5, 150 mM NaCl, 2 mM CaCl2, 0.005% Tween-20, no BSA; one-site model

Kd [1]: > 160 µM
B1: human Nrxn1β LNS domain (–S4), R206A mutant (domain or fragment)
chain: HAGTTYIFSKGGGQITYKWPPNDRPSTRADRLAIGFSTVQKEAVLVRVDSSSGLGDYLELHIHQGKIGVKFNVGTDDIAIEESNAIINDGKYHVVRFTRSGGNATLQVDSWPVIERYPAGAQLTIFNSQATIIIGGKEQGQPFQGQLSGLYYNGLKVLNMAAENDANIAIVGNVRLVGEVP
modifications: Ca2+-bound (2 mM CaCl2). Entry P58400 carries the S4 insert at 205-234, so paper (-S4) residues 205-266 are entry 235-296 (R206 = R236).

Kd [1]: > 80 µM
B2: human Nrxn1β LNS domain with the S4 insert (+S4) (domain or fragment)
chain: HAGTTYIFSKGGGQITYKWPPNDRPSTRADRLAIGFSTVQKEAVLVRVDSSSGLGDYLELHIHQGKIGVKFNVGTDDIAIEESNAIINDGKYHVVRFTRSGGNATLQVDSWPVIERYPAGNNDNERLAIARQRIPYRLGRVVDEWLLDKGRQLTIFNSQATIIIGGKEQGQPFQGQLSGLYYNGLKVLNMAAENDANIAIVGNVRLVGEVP
modifications: Ca2+-bound (2 mM CaCl2). S4 insert is entry residues 205-234.

Kd [2]: 4.3 µM | fold decrease in affinity against wild-type LRRTM2 [3]: ~5 fold | fold decrease in affinity against wild-type LRRTM2 [4]: > 9 fold | Kd [1]: 4 µM | Kd [5]: 4.2 µM
B3: human Nrxn1β LNS domain (–S4), wild type (domain or fragment)
chain: not shown
notes: human neurexin-1β LNS domain, splice variant without the S4 insert, residues 86-266; numbers count on: human Nrxn1β (–S4) (NM_001330092.1); also called Nrxn1β (–S4); Nrxin1β (–S4); source: Expi293F, transiently expressed, purified from culture medium (Ni-NTA, SEC); for crystallization coexpressed with LRRTM2 LRR and separated by SEC
